Blank lines part the entries; values can stand above or below the binder they belong to.
B5: Cynomolgus IL-33 Flag®His (ligand)
chain: SITGISPITESLASLSTYNDQSITFALEDESYEIYVEDLKKDKKKDKVLLSYYESQHPSSESGDGVDGKMLMVTLSPTKDFWLQANNKEHSVELHKCEKPLPDQAFFVLHNRSFNCVSFECKTDPGVFIGVKDNHLALIKVDYSENLGSENILFKLSEINPAFLYKVVGAADYKDDDDKAAHHHHHHHHHH
notes: C-terminal FLAG 10xHis tag, E. coli; also called Mature Cynomolugus IL-33; cyno IL-33 FH

Key:
[1] = molecular target: T1, His10/Avi Human IL33-01 (human); assay: HTRF epitope competition, IgG titrated; competitor DyLight labelled 33_640117 IgG; overnight
T1 construct: Wild type mature IL-33 with N-terminal 10xHis, Avitag and Factor Xa site; biotinylated by BirA on the Avitag where used biotinylated; reduced form unless treated; also called N-terminal His Avi IL-33; His-Avi human IL-33 wild type
T1 chain: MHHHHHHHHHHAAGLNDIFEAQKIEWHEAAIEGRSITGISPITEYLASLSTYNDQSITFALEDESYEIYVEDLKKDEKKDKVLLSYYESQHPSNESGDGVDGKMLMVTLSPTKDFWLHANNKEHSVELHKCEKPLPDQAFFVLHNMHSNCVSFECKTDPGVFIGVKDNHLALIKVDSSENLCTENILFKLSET
Outline: (§1)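 HTRF competition in which titrated IgG blocks binding of DyLight-labelled 33_640117 IgG (2.5 nM stock) to biotinylated IL-33 detected with streptavidin cryptate: human IL-33-01 at 0.12 nM with 0.75 nM cryptate, cyno IL-33 at 0.24 nM with 1.5 nM cryptate (solution concentrations). Fluorescence read after 1 h and overnight.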

[2] = molecular target: T1, His10/Avi Human IL33-01; assay: HTRF competition: purified IgG against FLAG-His human ST2 for biotinylated IL33-01, overnight incubation
[3] = molecular target: T2, Full-length human IL-33 (amino acids 1-270), HEK293-EBNA cell lysate (human, UniProt O95760 1-270); assay: cell-based or functional assay
T2 sequence (looked up): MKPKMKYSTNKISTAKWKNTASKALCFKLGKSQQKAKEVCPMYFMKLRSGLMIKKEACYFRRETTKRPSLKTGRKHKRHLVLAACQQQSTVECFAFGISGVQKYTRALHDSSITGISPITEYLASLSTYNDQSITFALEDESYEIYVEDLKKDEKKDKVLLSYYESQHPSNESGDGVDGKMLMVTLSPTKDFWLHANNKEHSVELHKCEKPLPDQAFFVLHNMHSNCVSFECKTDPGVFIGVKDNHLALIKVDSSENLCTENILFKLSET

[4] = molecular target: T3, Endogenous human IL-33 (human, UniProt O95760 1-270, limits assumed); assay: cell-based or functional assay
T3 sequence (looked up): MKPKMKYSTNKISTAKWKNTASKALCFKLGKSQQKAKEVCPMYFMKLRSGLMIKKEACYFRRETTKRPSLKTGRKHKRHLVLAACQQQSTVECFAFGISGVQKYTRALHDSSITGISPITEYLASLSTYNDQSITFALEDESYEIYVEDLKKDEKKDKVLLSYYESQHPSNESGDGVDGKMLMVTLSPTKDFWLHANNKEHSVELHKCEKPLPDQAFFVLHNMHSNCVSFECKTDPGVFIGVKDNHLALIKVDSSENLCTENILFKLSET

[5] = molecular target: T4, His10/Avi Cyno IL-33 (cynomolgus monkey); assay: HTRF epitope competition, IgG titrated; competitor DyLight labelled 33_640117 IgG; 1 hour
T4 construct: also called Cynomolgus 10His Avitag IL-33; biotinylated His Avi cynomolgus IL-33
T4 chain: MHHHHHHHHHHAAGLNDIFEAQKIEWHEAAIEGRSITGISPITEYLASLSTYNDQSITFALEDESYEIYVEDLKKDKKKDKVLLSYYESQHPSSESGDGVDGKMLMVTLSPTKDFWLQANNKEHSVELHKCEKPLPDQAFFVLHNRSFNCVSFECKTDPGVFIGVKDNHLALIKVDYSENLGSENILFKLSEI
Outline: as §1

[6] = molecular target: T1, His10/Avi Human IL33-01; assay: as above
Outline: as §1

[7] = molecular target: T1, His10/Avi Human IL33-01; assay: HTRF competition: purified IgG against FLAG-His human ST2 for biotinylated IL33-01, 1 hour incubation
[8] = molecular target: T5, Human IL-33 Flag®His (human); assay: cell-based or functional assay
T5 chain: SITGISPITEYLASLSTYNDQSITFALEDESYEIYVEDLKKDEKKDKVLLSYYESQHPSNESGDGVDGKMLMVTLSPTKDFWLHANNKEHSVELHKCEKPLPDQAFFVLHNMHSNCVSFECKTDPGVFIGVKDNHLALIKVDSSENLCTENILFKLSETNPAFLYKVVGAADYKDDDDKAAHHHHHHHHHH

[9] = molecular target: T5, Human IL-33 Flag®His; assay: SPR BIAcore 2000, IgG captured on Protein G', IL-33 as analyte, 1:1 Langmuir
Experimental: (§2) The binding affinity of purified IgG samples of exemplary binding members to human and cynomolgus IL-33 was determined by surface plasmon resonance using BIAcore 2000 biosensor (BIAcore AB) essentially as described by Karlsson et al., J Immunol Methods 145(1-2):229-40 (1991). In brief, Protein G′ (Sigma Aldrich, P4689) was covalently coupled to the surface of a CM5 sensor chip using standard amine coupling reagents according to manufacturer's instructions (BIAcore). The protein G′ surface was used to capture purified anti-IL-33 antibodies via the Fc domain to provide a surface density of approximately 290 RU per cycle. Human or cynomolgus IL-33 prepared in HBS-EP buffer (BIAcore AB), at a range of concentrations, between 600 nM and 18.75 nM, were passed over the sensor chip surface. The surface was regenerated using two 10 mM Glycine washes of pH 1.7 and pH 1.5 between each injection of antibody. The resulting sensorgrams were evaluated using BIA evaluation 3.1 software and fitted to a 1:1 Langmuir binding model, to provide relative binding data. The binding results (KD, Ka, and Kd) for antibodies IL330002 and IL330004 binding to human or cynomolgus IL-33 are shown in Table 8.

[10] = molecular target: B5; assay: as above
Experimental: as §2

[11] = molecular target: T6, Human IL-33 (Axxora/Adipogen AG-40B-0038) (human, UniProt O95760 112-270, limits assumed); assay: cell-based or functional assay
T6 sequence (looked up): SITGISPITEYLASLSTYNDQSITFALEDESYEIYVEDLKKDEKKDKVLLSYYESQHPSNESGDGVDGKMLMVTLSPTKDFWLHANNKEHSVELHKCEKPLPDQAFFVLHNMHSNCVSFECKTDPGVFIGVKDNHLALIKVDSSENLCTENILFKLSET

[12] = molecular target: T5, Human IL-33 Flag®His; assay: HTRF competition, IgG titrated against biotinylated human ST2-Fc
Outline: (§3)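 Antibody dilution series competed with biotinylated human ST2-Fc (added from a 4 nM mix with streptavidin-XL665) for IL-33 (added from a 1.2 nM mix with anti-FLAG cryptate). Buffer was DPBS with 0.8 M KF and 0.1% BSA. Incubation ran 2 h at RT then 16 h at 4 °C, with TRF read at 620/665 nm.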

[13] = molecular target: B5; assay: as above
Outline: as §3

[14] = molecular target: T5, Human IL-33 Flag®His; assay: HTRF: IL-33FH binding to biotinylated ST2-Fc, IgG titrated, after 18 h pre-incubation of IgG with IL-33
[15] = molecular target: T6, Human IL-33 (Axxora/Adipogen …); assay: HTRF epitope competition: unlabelled IgG against DyLight labelled IL330101 IgG for biotinylated human IL-33
[16] = molecular target: T7, 33_640237-2B IgG1; assay: HTRF: unlabelled test protein competes with biotinylated human IL33-01 for DyLight650 labelled 33_640237-2B IgG
T7 construct: IgG1
Experimental: (§4) Human, cyno and mouse IL-33 FLAG® His (described in Example 1 and Table 21), Human IL-1 alpha and IL-1 beta (R&D Systems) (Table 21) or rat IL-33 (GenScript) were tested for inhibition of human IL-33 binding to DyLight650 labelled 33_640087-7B or DyLight650 labelled 33_640237-2B by adding 5 microlitres of each dilution of sample to a 384 well low volume assay plate (Costar, 3673). […] This was followed by the addition of 2.5 microlitres of a solution containing 0.12 nM biotinylated human IL-33-01 combined with 0.75 nM streptavidin cryptate detection (Cisbio International, 610SAKLB). All dilutions were performed in assay buffer containing 0.8 M potassium fluoride (VWR, 26820.236) and 0.1% bovine serum albumin (BSA, PAA, K05-013) in Dulbeccos PBS (Invitrogen, 14190185). Assay plates were incubated for 4 hours at room temperature followed by 18 hours at 4 degrees Celsius and time resolved fluorescence was read at 620 nm and 665 nm emission wavelengths using an EnVision plate reader (Perkin Elmer). Data were analysed by calculating the 665/620 nm ratio followed by the % Delta F values for each sample. The 665/620 nm ratio was used to correct for sample interference using Equation 1. The % Delta F for each sample was then calculated using Equation 2. The negative control (non-specific binding) was defined by replacing biotinylated human IL-33 combined with streptavidin cryptate detection with streptavidin cryptate detection only. The % Delta F values were subsequently used to calculate % specific binding as described in Equation 3. IC₅₀ values were determined using GraphPad Prism software by curve fitting using a four-parameter logistic equation (Equation 4).

[17] = molecular target: T8, 33_640087-7B IgG1; assay: HTRF: unlabelled test protein competes with biotinylated human IL33-01 for DyLight650 labelled 33_640087-7B IgG
T8 construct: IgG1
Experimental: as §4, with “The negative control (non-specific binding) was defined by replacing biotinylated human IL-33 combined with streptavidin cryptate detection with streptavidin cryptate detection only. The % Delta F values were subsequently used to calculate % specific binding as described in Equation 3.” left out

IC50 [1]: 1.5 nM
IC50 (read off the curve) [2]: ~0.5 nM
IC50, Huvec IL-8 assay vs. full length IL-33 cell lysate [3]: 0.32 nM
IC50, Huvec IL-8 release stimulated by human lung lysate [4]: 0.032 nM
IC50 [5]: 4.1 nM
IC50 [6]: 0.3 nM
B1: 33_640050 IgG1 (antibody, V domains shown)
VH: EVQLLESGGGLVQPGGSLRLSCAASGFTFSSYAMSWVRQAPGKGLEWVSAISGSGGSTYYADSVKGRFTISRDNSKNTLYLQMNSLRAEDTAVYYCPRHKFMQLWGGGLRYPFGYWGQGTMVTVSS
VL: SYVLTQPPSVSVSPGQTASITCSGERMGDKYAAWYQQKPGQSPVLVIYQDTKRPSGIPERFSGSNSGNTATLTISGTQAMDEADYYCQVWDSSTGVFGGGTKVTVL
notes: IgG1; also called ZZ1F7Q-D10

IC50 (read off the curve) [7]: ~1 nM
IC50, human ST2 transfected HeLa NFkB luciferase reporter assay [8]: 23 nM
Kd [9]: 6 nM
koff [9]: 0.0011 s⁻¹
kon [9]: 196000 M⁻¹ s⁻¹
Kd [10]: 365 nM
koff [10]: 0.00458 s⁻¹
kon [10]: 12500 M⁻¹ s⁻¹
IC50, Huvec p65/RelA NFκB nuclear translocation [11]: 12 nM
IC50 [12]: 9 nM
IC50 [13]: 170 nM
B2: IL330004 IgG1 (antibody, V domains shown)
VH: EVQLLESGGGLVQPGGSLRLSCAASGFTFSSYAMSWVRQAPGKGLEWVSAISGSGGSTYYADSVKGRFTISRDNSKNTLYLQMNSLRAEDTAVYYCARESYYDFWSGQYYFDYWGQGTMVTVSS
VL: SYELTQPPSVSVSPGQTASISCSGDKLGDKFASWYQQKPGQSPVLIIYQDRKRPSGIPERFSGSNSGNTATLTISGTQTTDEADYYCQAWDGSLYVFGTGTKLTVL
notes: Human IgG1, lambda constant

IC50 (read off the curve) [14]: ~30 nM
B3: H338L293 (SEQ ID NOs 182 and 187) (antibody, V domains shown)
VH: EVQLLESGGGLVQPGGSLRLSCAASGFTFSSYAMSWVRQAPGKGLEWVSAISPREGWQYYADSVKGRFTISRDNSKNTLYLQMNSLRAEDTAVYYCVRVVAGYFDSWGRGTLVTVSS
VL: SYELMQPPSVSVSPGQTARITCSGDALPKQYAHWYQQKPGQAPVLVIYKDTERPSGIPERFSGSSSGTTVTLTISGVQAEDEADYYCMSSDPSGASRVFGGGTKLTVL
notes: IgG; also called H338L293_fgl; H338L293 IgG

IC50 (read off the curve) [15]: ~0.1 nM
B4: IL330259 IgG1 (antibody, V domains shown)
VH: EVQLLESGGGLVQPGGSLRLSCAASGFTFSSYAMSWVRQAPGKGLEWVSASTPWQGSTYYADSVKGRFTISRDNSKNTLYLQMNSLRAEDTAVYYCVRVVAGYFDSWGRGTLVTVSS
VL: SYVLTQPPSVSVSPGQTARITCSGDALPKQYAHWYQQKPGQAPALVIYKDTERPSGIPERFSGSSSGTTVTLTISGVQAEDEADYYCQSADSSGASRVFGGGTKVTVL
notes: IgG1

Binder: B5
IC50 (read off the curve) [16]: ~200 nM
IC50 (read off the curve) [17]: ~10 nM
